Results on 105 sequences are retold here after the supplement of paper PMC9112550, “Optimization of the antimicrobial peptide Bac7 by deep mutational scanning” (BMC Biology, 2022).

In the data set the test system is Escherichia coli TOP10. The data set is described as follows: shrunken log2 fold change of peptide-encoding DNA abundance (4.5 h post-induction vs induction); higher = less antimicrobial activity (less host growth inhibition). Conditions: time post-induction: 4.5 h; library: site-saturation at positions 5, 18, 19, 20.
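Note: peptides expressed intracellularly from a pBAD plasmid library in pooled LB shake-flask culture, induced with 0.3% L-arabinose, DNA abundance read by NGS, three biological replicates, DESeq2 with apeglm shrinkage.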

Regarding RRIRDRPPRLPRPRPRPSYWPRP, the “shrunken log2 fold change” value is -0.0689. In the case of RRIRHRPPRLPRPRPRPDVSPRP, the “shrunken log2 fold change” value was -0.198. The figure for RRIRMRPPRLPRPRPRPESAPRP is 2.73; for RRIRNRPPRLPRPRPRPSEAPRP it is 0.00843. In the case of RRIRMRPPRLPRPRPRPLSEPRP it was 0.511. The figure for RRIRQRPPRLPRPRPRPRCHPRP is 0.118; for RRIRTRPPRLPRPRPRPMDMPRP it is 0.0382; for RRIRNRPPRLPRPRPRPHYMPRP it is -0.389. For RRIRTRPPRLPRPRPRPRIDPRP, the “shrunken log2 fold change” value is -0.0699.

On to RRIRPRPPRLPRPRPRPHYGPRP, for which the “shrunken log2 fold change” value is -0.569. In the case of RRIRERPPRLPRPRPRPGVVPRP it was -0.0414; in that of RRIRIRPPRLPRPRPRPCINPRP, -0.355. In the case of RRIRARPPRLPRPRPRPTMKPRP it was 0.296; in that of RRIRMRPPRLPRPRPRPPSKPRP, 0.557; in that of RRIRPRPPRLPRPRPRPCWHPRP, -0.261.

Consider RRIRYRPPRLPRPRPRPSMIPRP, for which the “shrunken log2 fold change” value is -0.77.

As to RRIRIRPPRLPRPRPRPWHEPRP, the “shrunken log2 fold change” value worked out at 0.0173. The figure for RRIRSRPPRLPRPRPRPGPCPRP is 0.0781. In the case of RRIRARPPRLPRPRPRPQTGPRP it was 0.242; in that of RRIRKRPPRLPRPRPRPWRSPRP, -0.0167. The figure for RRIRNRPPRLPRPRPRPRFKPRP is 0.0387. Consider RRIRGRPPRLPRPRPRPLWHPRP, for which the “shrunken log2 fold change” value was 0.552. Regarding RRIRSRPPRLPRPRPRPYFAPRP, the “shrunken log2 fold change” value was -0.645. In the case of RRIRNRPPRLPRPRPRPDMTPRP it was -0.287; in that of RRIRARPPRLPRPRPRPSKYPRP, -0.464; in that of RRIRYRPPRLPRPRPRPISVPRP, -0.534. The figure for RRIRRRPPRLPRPRPRPEAWPRP is 0.14.

For RRIRTRPPRLPRPRPRPDPEPRP, the “shrunken log2 fold change” value was determined as 0.155. For the sequence RRIRCRPPRLPRPRPRPIILPRP, the “shrunken log2 fold change” value was -0.354. As for RRIRSRPPRLPRPRPRPWDWPRP, the “shrunken log2 fold change” value was 0.676. For the sequence RRIRHRPPRLPRPRPRPYFFPRP, the “shrunken log2 fold change” value is -0.485.

For RRIRHRPPRLPRPRPRPCSVPRP, the “shrunken log2 fold change” value was -0.00861. The figure for RRIRLRPPRLPRPRPRPYCEPRP is -0.135; for RRIRDRPPRLPRPRPRPFHVPRP it is -0.0179. In the case of RRIRQRPPRLPRPRPRPEGHPRP it was 0.00489; in that of RRIRERPPRLPRPRPRPRYNPRP, -0.672; in that of RRIRPRPPRLPRPRPRPLKEPRP, -0.228. In the case of RRIRQRPPRLPRPRPRPGPCPRP it was -0.0469. In the case of RRIRTRPPRLPRPRPRPQEIPRP, the “shrunken log2 fold change” value was -0.187. The figure for RRIRSRPPRLPRPRPRPELAPRP is 0.929; for RRIRGRPPRLPRPRPRPRYYPRP it is -0.0701; for RRIRNRPPRLPRPRPRPEHEPRP it is 0.127.

In the case of RRIRVRPPRLPRPRPRPLWGPRP, the “shrunken log2 fold change” value stood at 0.0188.

As to RRIRQRPPRLPRPRPRPFSAPRP, the “shrunken log2 fold change” value was -0.0161. The figure for RRIRPRPPRLPRPRPRPAYAPRP is 0.16. The figure for RRIRLRPPRLPRPRPRPGVKPRP is 0.108.

As to RRIRDRPPRLPRPRPRPEFVPRP, the “shrunken log2 fold change” value is 0.204.

For RRIRKRPPRLPRPRPRPCMPPRP, the “shrunken log2 fold change” value was 0.0752. The figure for RRIRTRPPRLPRPRPRPYAVPRP is -0.331; for RRIRKRPPRLPRPRPRPSYLPRP it is -0.144; for RRIRYRPPRLPRPRPRPVHNPRP it is -0.353.

On to RRIRKRPPRLPRPRPRPTALPRP, for which the “shrunken log2 fold change” value is 0.213. The figure for RRIRPRPPRLPRPRPRPTEVPRP is -0.342.

For RRIRTRPPRLPRPRPRPKIYPRP, the “shrunken log2 fold change” value is -0.191.

As to RRIRFRPPRLPRPRPRPFEGPRP, the “shrunken log2 fold change” value was determined as 0.0456. The figure for RRIRSRPPRLPRPRPRPTTLPRP is -0.0324. In the case of RRIRARPPRLPRPRPRPIEKPRP it was 0.15.

Turning to RRIRWRPPRLPRPRPRPEYEPRP, the “shrunken log2 fold change” value was -0.0434. In the case of RRIRARPPRLPRPRPRPWWLPRP it was -8.93e-05; in that of RRIRERPPRLPRPRPRPKSFPRP, 0.0203. For the sequence RRIRARPPRLPRPRPRPVKTPRP, the “shrunken log2 fold change” value turned out to be 0.232. The figure for RRIRVRPPRLPRPRPRPRFPPRP is 0.285; for RRIRERPPRLPRPRPRPADAPRP it is 0.117; for RRIRKRPPRLPRPRPRPRMEPRP it is 0.0104. As to RRIRRRPPRLPRPRPRPHDIPRP, the “shrunken log2 fold change” value is -0.127. In the case of RRIRPRPPRLPRPRPRPPRQPRP it was 0.334. The figure for RRIRYRPPRLPRPRPRPMIAPRP is -0.188. In the case of RRIRYRPPRLPRPRPRPQVCPRP it was -0.00133. RRIRARPPRLPRPRPRPYYQPRP: the “shrunken log2 fold change” value was -0.374. In the case of RRIRIRPPRLPRPRPRPYNWPRP, the “shrunken log2 fold change” value is -0.577. In the case of RRIRGRPPRLPRPRPRPEGTPRP it was 1.55; in that of RRIRYRPPRLPRPRPRPYDQPRP, -0.124; in that of RRIRSRPPRLPRPRPRPYISPRP, -0.0172. With RRIRCRPPRLPRPRPRPIFNPRP, the “shrunken log2 fold change” value was -0.542. In the case of RRIRLRPPRLPRPRPRPGETPRP it was -0.0544; in that of RRIRERPPRLPRPRPRPEYPPRP, -0.162. In the case of RRIRVRPPRLPRPRPRPPRWPRP it was 0.812. In the case of RRIRFRPPRLPRPRPRPMYGPRP it was -0.36; in that of RRIRRRPPRLPRPRPRPSRMPRP, 0.0176. In the case of RRIRCRPPRLPRPRPRPTQQPRP, the “shrunken log2 fold change” value is -0.0719. The figure for RRIRWRPPRLPRPRPRPPPFPRP is 0.22; for RRIRCRPPRLPRPRPRPTERPRP it is 0.211; for RRIRMRPPRLPRPRPRPEYLPRP it is -0.082. The figure for RRIRTRPPRLPRPRPRPPLMPRP is -0.0314; for RRIRTRPPRLPRPRPRPTMIPRP it is -0.413. The figure for RRIRVRPPRLPRPRPRPFMWPRP is -0.327. In the case of RRIRFRPPRLPRPRPRPPTWPRP, the “shrunken log2 fold change” value is 0.239. As to RRIRNRPPRLPRPRPRPWNQPRP, the “shrunken log2 fold change” value was -0.0135. Take RRIRHRPPRLPRPRPRPQISPRP: the “shrunken log2 fold change” value was -0.0457. The figure for RRIRWRPPRLPRPRPRPFRLPRP is -0.394; for RRIRRRPPRLPRPRPRPDHFPRP it is 0.0408. The figure for RRIRKRPPRLPRPRPRPYACPRP is -0.0471; for RRIRMRPPRLPRPRPRPRIAPRP it is 0.786. In the case of RRIRSRPPRLPRPRPRPGQCPRP it was 0.0202; in that of RRIRSRPPRLPRPRPRPIWAPRP, -0.133; in that of RRIRIRPPRLPRPRPRPKREPRP, 0.0342. In the case of RRIRGRPPRLPRPRPRPVSMPRP, the “shrunken log2 fold change” value was determined as 0.401. Regarding RRIRERPPRLPRPRPRPQPSPRP, the “shrunken log2 fold change” value came out at 0.0462. For RRIRRRPPRLPRPRPRPNWDPRP, the “shrunken log2 fold change” value is -0.0988. The figure for RRIRERPPRLPRPRPRPESHPRP is -0.0157; for RRIRVRPPRLPRPRPRPILYPRP it is 0.0692. The figure for RRIRPRPPRLPRPRPRPVGGPRP is 0.408.

On to RRIRNRPPRLPRPRPRPMASPRP, for which the “shrunken log2 fold change” value is -0.0269. In the case of RRIRLRPPRLPRPRPRPWFRPRP it was -0.252; in that of RRIRTRPPRLPRPRPRPSHCPRP, -0.0229.
